Patent publication US20170253873A1

Target: phosphorylated Smad3 (pSmad3) (UniProt Q8BUN5)
Assay: cell-based or functional assay

Chain of phosphorylated Smad3 (pSmad3) (Q8BUN5 2-425 limits assumed): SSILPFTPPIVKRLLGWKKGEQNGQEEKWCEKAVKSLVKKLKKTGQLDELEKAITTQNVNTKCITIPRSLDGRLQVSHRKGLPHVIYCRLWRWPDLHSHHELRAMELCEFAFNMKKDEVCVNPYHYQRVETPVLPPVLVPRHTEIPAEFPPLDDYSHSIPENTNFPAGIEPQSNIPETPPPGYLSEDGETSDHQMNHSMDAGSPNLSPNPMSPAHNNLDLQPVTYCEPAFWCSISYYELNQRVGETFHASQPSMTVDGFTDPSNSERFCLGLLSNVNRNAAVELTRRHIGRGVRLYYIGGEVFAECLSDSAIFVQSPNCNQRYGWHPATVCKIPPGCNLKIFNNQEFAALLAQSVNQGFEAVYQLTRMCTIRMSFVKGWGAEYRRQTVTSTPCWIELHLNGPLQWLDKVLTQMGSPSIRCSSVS

## TAT-SH3 (TAT-SNX9(SH3) fusion polypeptide containing the full length SH3 domain, amino acids 1 to 62) (from UniProt Q9Y5X1 1-62) (designed binder)
  decrease in Smad3-dependent luciferase activity: 70%
